Source: the RNAGym collection of RNA variant scans (doi:10.7554/elife.80360)

B1: Hairpin Ribozyme (parent)
chain: GUCCUCUUUCACGUGCGCGUGAAAGAGAGAAGUGAACCAGAGAAACACACGUUGUGGUAUAUUACCUGGUA

Variants of: B1
Assay: self-cleavage, relative activity (ratio to wild type); higher = more cleavage; co-transcriptional

Variant	self-cleavage
GUCCUCUUACACGUGCGCGUGAAAGAGAGAAGUGAACCAGAGAAACACACGUUGUAGUAUAUUACCUGGUA [U9A G56A]	0.158
GUCCUCUUACACGUGCGCGUGAAAGAGAGAAGUGAACCAGAGAAACACACGAUGUGGUAUAUUACCUGGUA [U9A U52A]	0.877
GUCCUCUUACACGUGCGCGUGAAAGAGAGAAGUGAACCAGAGAAACACACGCUGUGGUAUAUUACCUGGUA [U9A U52C]	0.6
GUCCUCUUACACGUGCGCGUGAAAUAGAGAAGUGAACCAGAGAAACACACGUUGUGGUAUAUUACCUGGUA [U9A G25U]	0.285
GUCCUCUUACACGUGCGCGUGAAAGAGAGAAGCGAACCAGAGAAACACACGUUGUGGUAUAUUACCUGGUA [U9A U33C]	0.177
GUCCUCUUACACGUGCGCGUGAAAGAGAGAAGGGAACCAGAGAAACACACGUUGUGGUAUAUUACCUGGUA [U9A U33G]	0.105
GUCCUCUUACACGUGCGCGUGAAAGAGAGAAGAGAACCAGAGAAACACACGUUGUGGUAUAUUACCUGGUA [U9A U33A]	0.0178
GUCCUCUUACACGUGCGCGUGAAAGAGAGAAGUGAACCAGAGAAACACACGUUGUGGUAUAUUACCAGGUA [U9A U67A]	0.147
GUCCUCUUACACGUGCGCGUGAAAGAGAGAAGUGAACCAGAGAAACACACGUUGUGGUAUAUUACCGGGUA [U9A U67G]	0.152
GUCCUCUUACACGUGCGCGUGAAAGAGAGAAGUGAACGAGAGAAACACACGUUGUGGUAUAUUACCUGGUA [U9A C38G]	0.145
GUCCUCUUACACGUGCGCGCGAAAGAGAGAAGUGAACCAGAGAAACACACGUUGUGGUAUAUUACCUGGUA [U9A U20C]	0.773
GUCCUCUUACACGUGCGCGUGAAAGAGAGAACUGAACCAGAGAAACACACGUUGUGGUAUAUUACCUGGUA [U9A G32C]	0.178
GUCCUCUUACACGUGCGCGUGAAAGAGAGAAUUGAACCAGAGAAACACACGUUGUGGUAUAUUACCUGGUA [U9A G32U]	0.135
GUCCUCUUCCACGUGCGCGUGAAAGAGAGAAGUGAACCAGAGAAACACUCGUUGUGGUAUAUUACCUGGUA [U9C A49U]	0.0445
GUCCUCUUCCACGUGGGCGUGAAAGAGAGAAGUGAACCAGAGAAACACACGUUGUGGUAUAUUACCUGGUA [U9C C16G]	0.63
GUCCUCUUCCACGUGUGCGUGAAAGAGAGAAGUGAACCAGAGAAACACACGUUGUGGUAUAUUACCUGGUA [U9C C16U]	1.02
GUCCUCUUACACGUGCGCGUGAAAGAUAGAAGUGAACCAGAGAAACACACGUUGUGGUAUAUUACCUGGUA [U9A G27U]	0.326
GUCCUCUUACACGUGCGCGUGAAAGACAGAAGUGAACCAGAGAAACACACGUUGUGGUAUAUUACCUGGUA [U9A G27C]	0.239
GUCCUCUUCCACGUGCGCGUGUAAGAGAGAAGUGAACCAGAGAAACACACGUUGUGGUAUAUUACCUGGUA [U9C A22U]	0.799
GUCCUCUUACACGUGCGCGUGAAAGAGAGAAGUGAACCAGAGAAACACACGUUGUGGUAAAUUACCUGGUA [U9A U60A]	0.483
GUCCUCUUACACGUGCGCGUGAAAGAGAGAAGUGAACCAGAAAAACACACGUUGUGGUAUAUUACCUGGUA [U9A G42A]	0.132
GUCCUCUUCCACGUGCGCGUGAAAGAGAGAAGUGAACCAGAGACACACACGUUGUGGUAUAUUACCUGGUA [U9C A44C]	0.183
GUCCUCUUACACGUGCGCGUGAAAGAGAGAAGUGAACCAGAGAAACACACGUUGUGGUAUAUGACCUGGUA [U9A U63G]	0.151
GUCCUCUUACACGUGCGCGUGAAAGAGAGAAGUGAACCAGAGAAACACACGUUGUGGUAUAUAACCUGGUA [U9A U63A]	0.212
GUCCUCUUACACGUGCGCGUGAAAGAGAGAAGUGAACCAGAGAAACACACGUUGUGGUAUAUCACCUGGUA [U9A U63C]	0.205
GUCCUCUUACACGUGCGCGUGAAAGAGAGAAGUGAACCAGAGAAACACACGUUGUGGUAUAUUACCUUGUA [U9A G68U]	0.159

Variant	self-cleavage
GUCCUCUUACACGUGCGCGUGAAAGAGAGAAGUGAACCAGAGAAACACACGUUGUGGUAUAUUACCUCGUA [U9A G68C]	0.165
GUCCUCUUCCACGUGCGCGUGAAAGAGGGAAGUGAACCAGAGAAACACACGUUGUGGUAUAUUACCUGGUA [U9C A28G]	1.33
GUCCUCUUCCACGUGCGCGUGAAAGAGUGAAGUGAACCAGAGAAACACACGUUGUGGUAUAUUACCUGGUA [U9C A28U]	0.571
GUCCUCUUCCAAGUGCGCGUGAAAGAGAGAAGUGAACCAGAGAAACACACGUUGUGGUAUAUUACCUGGUA [U9C C12A]	0.789
GUCCUCUUCCAGGUGCGCGUGAAAGAGAGAAGUGAACCAGAGAAACACACGUUGUGGUAUAUUACCUGGUA [U9C C12G]	0.502
GUCCUCUUCCACGUGCGAGUGAAAGAGAGAAGUGAACCAGAGAAACACACGUUGUGGUAUAUUACCUGGUA [U9C C18A]	0.84
GUCCUCUUCCACGUGCGUGUGAAAGAGAGAAGUGAACCAGAGAAACACACGUUGUGGUAUAUUACCUGGUA [U9C C18U]	1.02
GUCCUCUUACACGUGCGCGUGAAAGAGAAAAGUGAACCAGAGAAACACACGUUGUGGUAUAUUACCUGGUA [U9A G29A]	0.0709
GUCCUCUUACACGUGCGCGUGAAAGAGACAAGUGAACCAGAGAAACACACGUUGUGGUAUAUUACCUGGUA [U9A G29C]	0.154
GUCCUCUUACACGUGCGCGUGAAAGAGAUAAGUGAACCAGAGAAACACACGUUGUGGUAUAUUACCUGGUA [U9A G29U]	0.144
GUCCUCUUCCACGUGCGCGUGAAAGAGAGAGGUGAACCAGAGAAACACACGUUGUGGUAUAUUACCUGGUA [U9C A31G]	0.592
GUCCUCUUCCACGUGCGCGUGAAAGAGAGACGUGAACCAGAGAAACACACGUUGUGGUAUAUUACCUGGUA [U9C A31C]	0.184
GUCCUCUUCCACGUGCGCGUGAAAGAGAGAUGUGAACCAGAGAAACACACGUUGUGGUAUAUUACCUGGUA [U9C A31U]	0.153
GUCCUCUUCCACGUGCGCGUGAAAGAGAGAAGUGAAACAGAGAAACACACGUUGUGGUAUAUUACCUGGUA [U9C C37A]	0.355
GUCCUCUUCCACGUGCGCGUGAAAGAGAGAAGUGAACCAGCGAAACACACGUUGUGGUAUAUUACCUGGUA [U9C A41C]	0.837
GUCCUCUUCCACGUGCGCGUGAAAGAGAGAAGUGAACCAGAGAAGCACACGUUGUGGUAUAUUACCUGGUA [U9C A45G]	0.0278
GUCCUCUUACACGUGCGCGUGAAAGAGAGAAGUGAACCAGAGAAACACAUGUUGUGGUAUAUUACCUGGUA [U9A C50U]	0.22
GUCCUCUUCCACGUGCGCGUGAAAGAGAGUAGUGAACCAGAGAAACACACGUUGUGGUAUAUUACCUGGUA [U9C A30U]	0.12
GUCCUCUUACACGUGCGCGUGAAAGAGAGAAGUGAACCAGAGAAACACACGUUGUGCUAUAUUACCUGGUA [U9A G57C]	0.185
GUCCUCUUACACGUGCGCGUGAAAGAGAGAAGUGAACCAGAGAAACACACGUUGUGGUAUAUUACGUGGUA [U9A C66G]	0.0453
GUCCUCUUCCACGUGCGCGUGAAAGAGAGAAGUGAACCAGAGUAACACACGUUGUGGUAUAUUACCUGGUA [U9C A43U]	0.298
GUCCUCUUACACGUGCGCGUGAAAGAGAGAAGUGAACCAGAGAAACACACGUUAUGGUAUAUUACCUGGUA [U9A G54A]	0.392
GUCCUCUUCCACGUGCGCGUGAACGAGAGAAGUGAACCAGAGAAACACACGUUGUGGUAUAUUACCUGGUA [U9C A24C]	0.657
GUCCUCUUCCACGUGCGCGUGAAGGAGAGAAGUGAACCAGAGAAACACACGUUGUGGUAUAUUACCUGGUA [U9C A24G]	0.844
GUCCUCUUACACGUGCGCGUGAAAGAGAGAAGUGAACCAGAGAAACACACGUUGUGGUAUAUUACCUGCUA [U9A G69C]	0.274
GUCCUCUUACACGUGCGCGUGAAAGAGAGAAGUGAACCAGAGAAACACACGUUGUGGUAUAUUACCUGAUA [U9A G69A]	0.296

Variant	self-cleavage
GUCCUCUUACACGUGCGCGUGAAAGAGAGAAGUGAACCAGAGAAACACACGUUGUGGUAUAUUACCUGUUA [U9A G69U]	0.245
GUCCUCUUCCACGUGCGCGUGAAAGAGAGAAGUGAACCAGAGAAACACACGUUGUGGUAUAUUACCUGGUA [U9C]	0.819
GUCCUCUUCCACGUGCGCGUGAAAGAGAGAAGUGAACCAGAGAAACCCACGUUGUGGUAUAUUACCUGGUA [U9C A47C]	0.149
GUCCUCUUACACGUGCGCGUGAAAGAGAGAAGUCAACCAGAGAAACACACGUUGUGGUAUAUUACCUGGUA [U9A G34C]	1.08
GUCCUCUUACACGUGCGCGUGAAAGAGAGAAGUGAACCAGAGAAACACACGUUGUGGCAUAUUACCUGGUA [U9A U58C]	0.72
GUCCUCUUCCACGUGCGCGUGAAAGAGAGAAGUGUACCAGAGAAACACACGUUGUGGUAUAUUACCUGGUA [U9C A35U]	0.708
GUCCUCUUACACGUGCGCGUGAAAGAGAGAAGUGAACCAGAGAAACAUACGUUGUGGUAUAUUACCUGGUA [U9A C48U]	0.134
GUCCUCUUACACGUGCGCGUGAAAGAGAGAAGUGAACCAGAGAAACAGACGUUGUGGUAUAUUACCUGGUA [U9A C48G]	0.127
GUCCUCUUCCACGUGCGCGUGAAAGAGAGAAGUGAACUAGAGAAACACACGUUGUGGUAUAUUACCUGGUA [U9C C38U]	0.338
GUCCUCUUCCACGUGCGCGUGAAAGAGAGAAGUGAACAAGAGAAACACACGUUGUGGUAUAUUACCUGGUA [U9C C38A]	0.225
GUCCUCUUACACGUCCGCGUGAAAGAGAGAAGUGAACCAGAGAAACACACGUUGUGGUAUAUUACCUGGUA [U9A G15C]	0.727
GUCCUCUUCCACGUGCGCGUGAUAGAGAGAAGUGAACCAGAGAAACACACGUUGUGGUAUAUUACCUGGUA [U9C A23U]	0.528
GUCCUCUUCCCCGUGCGCGUGAAAGAGAGAAGUGAACCAGAGAAACACACGUUGUGGUAUAUUACCUGGUA [U9C A11C]	0.592
GUCCUCUUCCACGUGCGCGUGAAAGAGAGAAGUGAACCCGAGAAACACACGUUGUGGUAUAUUACCUGGUA [U9C A39C]	0.366
GUCCUCUUCCACGUGCGCGUGAAAGAGAGAAGUGAACCGGAGAAACACACGUUGUGGUAUAUUACCUGGUA [U9C A39G]	0.283
GUCCUCUUCCACGUGCGCGUGAAAGAGAGAAGUGAACCUGAGAAACACACGUUGUGGUAUAUUACCUGGUA [U9C A39U]	0.411
GUCCUCUUCCACGUGCGCGUGAAAGAGAGAAGUGAUCCAGAGAAACACACGUUGUGGUAUAUUACCUGGUA [U9C A36U]	0.444
GUCCUCUUACACGUGCGCGUGAAAGAGAGAAGUGAACCAUAGAAACACACGUUGUGGUAUAUUACCUGGUA [U9A G40U]	0.119
GUCCUCUUACACGUGCGCGUGAAAGAGAGAAGUGAACCAAAGAAACACACGUUGUGGUAUAUUACCUGGUA [U9A G40A]	0.262
GUCCUCUUACACGUGCGCGUGAAAGAGAGAAGUGAACCAGAGAAACACACGUUGUGGUAUACUACCUGGUA [U9A U62C]	0.249
GUCCUCUUACACUUGCGCGUGAAAGAGAGAAGUGAACCAGAGAAACACACGUUGUGGUAUAUUACCUGGUA [U9A G13U]	0.479
GUCCUCUUCCACGUGCGCGUGAAAGAGAGAAGUGAACCAGAGAAACACACGUUGUGGUGUAUUACCUGGUA [U9C A59G]	0.0975
GUCCUCUUCCACGUGCGCGUGAAAGAGAGAAGUGAACCAGAGAAACACACGUUGUGGUAUGUUACCUGGUA [U9C A61G]	0.348
GUCCUCUUACACGUGCGCUUGAAAGAGAGAAGUGAACCAGAGAAACACACGUUGUGGUAUAUUACCUGGUA [U9A G19U]	0.558
